Measured values published in patent US20210079109A1 (Regeneron, published 2021).
Numbering of substitutions follows the chain as printed.

T1: human CD63 (human, UniProt P08962 2-238)
T1 construct: stably transfected in NIH3T3/hCD63; The cell line is named under assay; also called hCD63
T1 sequence: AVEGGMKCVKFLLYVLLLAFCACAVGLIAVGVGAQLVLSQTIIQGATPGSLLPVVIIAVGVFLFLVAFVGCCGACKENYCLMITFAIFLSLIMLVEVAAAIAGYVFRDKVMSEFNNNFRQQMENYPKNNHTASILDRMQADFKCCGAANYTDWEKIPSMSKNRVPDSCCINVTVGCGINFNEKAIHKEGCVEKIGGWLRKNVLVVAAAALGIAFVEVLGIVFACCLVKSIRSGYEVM

B1: H4H11995P2 (antibody, V domains shown)
VH: EVQLVESGGALVQPGRSLRLSCAASGFTFDDYAMHWVRQAPGKGLEWVSGISWNSGTMGYADSVKGRFTISRDNAKKSLYLQMNSLRAEDTALYYCGKGLLHQWEVLDYWGQGTLVTVSS
VL: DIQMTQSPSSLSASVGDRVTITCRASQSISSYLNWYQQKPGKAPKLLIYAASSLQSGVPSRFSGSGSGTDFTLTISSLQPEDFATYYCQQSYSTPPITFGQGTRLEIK
B2: H2M12454N (antibody, V domains shown)
VH: QVQLVESGGGLVKPGGSLRLSCAVSGFTYTDYFMNWIRQAPGKGLEWVSYISNSGAIKYYADSVKGRFTISRDNAKNSLYLQMNGLRADDTAVYYCVRDPRSYYGFDYWGQGTLVTVSS
VL: DIQMTQSPSSLSASVGDRVTITCRASQSISNFLNWYQQKPGKAPRLLIYGASNLQSGVPSRFSGGGSGTDFTLTISSLQPADFATYYCQQSFSNPPVTFGQGTRLEIN
notes: also called H2bM12454N
B3: H2M12385N (antibody, V domains shown)
VH: B2 VH with V24A, Y29F, Y60Q, G85S
VL: B2 VL with S30R, G50A, N53S, A81E, F92Y, V97I, N108K
notes: also called H2bM12385N; H2bM12385
B4: H2M12392N (antibody, V domains shown)
VH: QVQLVESGGGLVKPGGSLRLSCATSGFTFGDYYMNWFRQAPGKGLDWVSYISSSGSTRYYADSVRGRFTISRDNAKNSLYLQMNSLRAEDTAVYYCVRDLRYYYGMDVWGQGTTVTVSS
VL: not shown
notes: also called H2aM12392N
B5: H4H12450N (antibody, V domains shown)
VH: QVQLQESGPKVVKPSETLSLTCTVSGGSISSYYWNWIRQSPGKGLEWIGYTKRGYTDYNPSLRSRVTISEDTSKNQFSLRISSVTAADTAVYYCAQMGWGSHAFDMWGQGTMVAVSS
VL: not shown
B6: H1M12390N (antibody, V domains shown)
VH: QVHLVESGGGLVKPGGSLRLSCAASGFIFSDYYMSWIRQAPGKGLEWVSYIRGSGYNADSVQGRFTISRDNAKNSLFLQMNSLRAEDTAVYYCARGYSFGYGFFDYWGQGTLVTVSS
VL: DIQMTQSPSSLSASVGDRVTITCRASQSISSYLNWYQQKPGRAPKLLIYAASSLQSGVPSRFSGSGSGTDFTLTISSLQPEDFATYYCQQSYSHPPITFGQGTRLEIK

Legend:
[1] = target: T2, recombinant human CD63 extracellular loop 2 expressed with a C-terminal Myc-Myc-hexahistidine (human); test: SPR Biacore, mAb captured, 37C
T2 construct: also called hCD63 EC loop 2-MMH; human CD63 EC loop 2-MMH
T2 sequence (chain, as listed by the source limits assumed): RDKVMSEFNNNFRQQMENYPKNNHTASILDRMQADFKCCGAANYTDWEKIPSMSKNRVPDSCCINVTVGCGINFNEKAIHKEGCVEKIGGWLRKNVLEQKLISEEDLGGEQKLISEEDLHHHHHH
Description: (§1) Equilibrium dissociation constants (KD) for different CD63 (EC2) loop reagents binding to purified anti-CD63 monoclonal antibodies were determined using a real-time surface plasmon resonance based Biacore T200 biosensor or Biacore 2000 biosensor. All binding studies were performed in 10 mM HEPES, 150 mM NaCl, 3 mM EDTA, and 0.05% v/v Surfactant Tween-20, pH 7.4 (HBS-ET) running buffer at 25° C. and 37° C. The Biacore CMS sensor chip surface was first derivatized by amine coupling with either a rabbit anti-mouse Fc specific polyclonal antibody (GE Healthcare, Cat #BR100838) or an anti-human Fab kit (GE Healthcare, Cat #28958325) to capture anti-CD63 monoclonal antibodies. […] The association rate (Kₐ) and dissociation rate (kd) were determined by fitting the real-time binding sensorgrams to a 1:1 binding model with mass transport limitation using Scrubber 2.0c curve-fitting software. Binding dissociation equilibrium constant (KD) and dissociative half-life (t½) were calculated from the kinetic rates as: […]
(§2) Binding kinetics parameters for human CD63 EC loop 2 protein binding to different anti-CD63 monoclonal antibodies of the invention at 25° C. and 37° C. are shown in Tables 6 through 9.

[2] = target: T3, recombinant human CD63 extracellular loop 2 expressed with a C-terminal human Fc tag (human); test: SPR Biacore, mAb captured, 37C
T3 construct: also called hCD63 EC loop 2-hFc; human CD63 EC loop 2-Fc
T3 sequence (chain, as listed by the source limits assumed): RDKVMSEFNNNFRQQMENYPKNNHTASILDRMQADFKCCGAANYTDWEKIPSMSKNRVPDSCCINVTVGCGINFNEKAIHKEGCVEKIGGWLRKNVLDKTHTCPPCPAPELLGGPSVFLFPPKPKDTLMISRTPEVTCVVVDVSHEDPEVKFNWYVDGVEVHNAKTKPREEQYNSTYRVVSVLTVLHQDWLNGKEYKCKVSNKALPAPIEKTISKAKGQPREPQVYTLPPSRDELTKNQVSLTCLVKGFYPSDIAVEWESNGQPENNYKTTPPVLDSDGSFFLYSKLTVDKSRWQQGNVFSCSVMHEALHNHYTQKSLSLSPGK
Description: as §1, §2

human CD63 [3] = target: T1, human CD63; test: ECL, LNCAP cells
Description: (§3) LNCAP cells were determined to have a lower human CD63 copy number than U87MG cells. Non-transfected NIH3T3 cells, which have no detectable expression of human CD63 by fluorescence activated cell sorting (FACS), were included as a negative control.
(§4) Briefly, cell lines were rinsed once in PBS buffer without Ca²⁺/Mg²⁺ and incubated for 10 minutes at 37° C. with Enzyme Free Cell Dissociation Solution (Millipore, Cat #S-004-C) to detach the cells. Cells were then washed once with PBS with Ca²⁺/Mg²⁺ and counted with a Cellometer™ Auto T4 cell counter (Nexcelom Bioscience, LLC). Approximately 2.0×10⁴ NIH3T3/hCD63, LNCAP, U87MG or NIH3T3 cells were seeded separately onto 96-well carbon electrode plates […]) and were then incubated for one hour at 37° C. Nonspecific binding sites were blocked with 2% BSA (w/v) in PBS with Ca²⁺/Mg²⁺ for one hour at room temperature (RT). Solutions containing anti-CD63 antibodies or isotype control antibodies at a range of concentrations (1.7 pM to 100 nM) in 0.5% BSA (w/v) in PBS with Ca²⁺/Mg²⁺, as well as control buffer alone, were then added in duplicate to the plate-bound NIH3T3/hCD63, LNCAP, U87MG or NIH3T3 cells and incubated for one hour at RT. Plates were subsequently washed to remove unbound antibodies using an AquaMax2000 plate washer with a cell washing head (MDS Analytical Technologies). […] Plates were washed and then incubated with Read Buffer (MSD, Cat #R92TD-2) according to the manufacturer's instructions. Luminescent signals were measured using a SECTOR Imager (MSD).

human CD63 [4] = target: T1, human CD63; test: ECL, NIH3T3/hCD63 cells
Description: as §3, §4

[5] = target: T2, recombinant human CD63 extracellular …; test: SPR Biacore, mAb captured, 25C
Description: as §1, §2

[6] = target: T3, recombinant human CD63 extracellular …; test: SPR Biacore, mAb captured, 25C
Description: as §1, §2

human CD63 [7] = target: T1, human CD63; test: ECL, U87MG cells
Description: as §3, §4

human CD63 [8] = target: T1, human CD63; test: imaging of stained T47D cells, 10 ug/mL antibody
Description: To stain, quadruplicate plates of cells were incubated with 10 μg/mL of anti-CD63 antibodies that was diluted in 2% FBS in PBS, without Calcium and Magnesium (Irving, Cat #9240) (staining buffer) for 30 minutes at 4° C. […] Two plates were immediately fixed and stained with 4% paraformaldehyde (PFA; ThermoFisher, Cat #28908)+5 uM DRAQ5 (ThermoFisher, Cat #62251) in PBS for 20 minutes (non-internalization plates). The remaining two plates were incubated with growth media at 37° C. for 2 hours followed by fixation and staining for 20 minutes using a solution of 4% PFA+5 μM DRAQ5 diluted in PBS (internalization plates). After fixation, all plates were washed once with PBS. One non-internalization plate and one internalization plate were incubated with an anti-Alexa Fluor 488 antibody (Regeneron) at 50 μg/mL in PBS overnight at 4° C. to quench surface Alexa Fluor 488 fluorescence. The remaining plates were incubated with PBS only. Confocal images were acquired on the Opera Phenix (Perkin Elmer) at 40× magnification. Harmony analysis software (Perkin Elmer) was utilized to identify DRAQ5-labeled cells and the total Alexa-Fluor 488 relative fluorescent units (RFU) per cell was determined. The total binding at 4° C. (RFU values of 4° C. unquenched wells), total binding at 37° C. (RFU values of 37° C. unquenched wells), the total internalized RFU, and the % Internalization were determined for each antibody as shown in Table 1. For all calculations, background fluorescence from 2nd Ab only control wells were subtracted from every well. Total internalized RFU was calculated as follows: Total RFU of 37° C. unquenched samples−Surface RFU at 37° C. Surface RFU is defined as unquenched RFU at 37° C.−quenched RFU at 37° C.)/QE. QE (quenching efficiency) is defined as: 1−(Total RFU of 4° C. quenched sample/Total RFU of 4° C. unquenched sample). The % Internalization was determined from the following formula: (Total internalized RFU at 37° C./Total RFU at 37° C.)*100.

human CD63 [9] = target: T1, human CD63; test: cell-based or functional assay

Binder	100 nM Ag Bound (RU) [1] [RU]	Kd [1] [nM]	koff [1] [s⁻¹]	kon [1] [M⁻¹ s⁻¹]	t1/2 [1] [min]	100 nM Ag Bound (RU) [2] [RU]	Kd [2] [nM]	koff [2] [s⁻¹]	kon [2] [M⁻¹ s⁻¹]	t1/2 [2] [min]	EC50 (human CD63 [3]) [nM]	binding ratio at 3.7 nM vs NIH3T3 (human CD63 [3]) [fold]	EC50 (human CD63 [4]) [nM]	binding ratio at 3.7 nM vs NIH3T3 (human CD63 [4]) [fold]	100 nM Ag Bound (RU) [5] [RU]	100 nM Ag Bound (RU) [6] [RU]	Kd [6] [nM]	koff [6] [s⁻¹]	kon [6] [M⁻¹ s⁻¹]	t1/2 [6] [min]	also measured
B1	3	1620	0.128	79400	0.1	116	14.5	0.0188	1.29e+06	1	55	5	5	212	8	198	10.1	0.00555	552000	2	EC50 (human CD63 [7]): 13 nM; binding ratio at 3.7 nM vs NIH3T3 (human CD63 [7]): 61 fold
B2	56	10.6	0.00591	559000	2	160	0.895	0.000777	868000	15	0.18	14	0.32	175	61	142	0.523	0.00036	688000	32	Kd [5]: 4.89 nM; koff [5]: 0.00188 s⁻¹; kon [5]: 384000 M⁻¹ s⁻¹; t1/2 [5]: 6 min; EC50 (human CD63 [7]): 0.47 nM; binding ratio at 3.7 nM vs NIH3T3 (human CD63 [7]): 132 fold
B3	44	40	0.0109	271000	1	133	2.05	0.0017	827000	7	0.29	5	0.45	71	48	121	1.66	0.000984	592000	12	Kd [5]: 10.3 nM; koff [5]: 0.00331 s⁻¹; kon [5]: 322000 M⁻¹ s⁻¹; t1/2 [5]: 3 min; EC50 (human CD63 [7]): 0.64 nM; binding ratio at 3.7 nM vs NIH3T3 (human CD63 [7]): 47 fold
B4	68	7.25	0.00324	447000	4	177	0.582	0.000445	765000	26	0.23	51	0.4	608	79	169	0.391	0.000199	510000	58	Kd [5]: 3.1 nM; koff [5]: 0.000922 s⁻¹; kon [5]: 298000 M⁻¹ s⁻¹; t1/2 [5]: 13 min; EC50 (human CD63 [7]): 0.53 nM; binding ratio at 3.7 nM vs NIH3T3 (human CD63 [7]): 405 fold
B5	–	–	–	–	–	–	–	–	–	–	–	–	–	–	–	–	–	–	–	–	Total RFU at 4C (human CD63 [8]): 2.1e+06 RFU; Total RFU at 37C (2 h) (human CD63 [8]): 2.08e+06 RFU; % Internalization, T47D cells (human CD63 [9]): 68.1%; Total Internalized RFU, T47D cells (human CD63 [9]): 1.42e+06 RFU
B6	38	35.6	0.0149	419000	1	134	0.546	0.000495	907000	23	0.3	31	0.48	559	54	150	1.89	0.000991	523000	12	Kd [5]: 10.4 nM; koff [5]: 0.00336 s⁻¹; kon [5]: 323000 M⁻¹ s⁻¹; t1/2 [5]: 3 min; EC50 (human CD63 [7]): 0.36 nM; binding ratio at 3.7 nM vs NIH3T3 (human CD63 [7]): 339 fold
